Substitutions are numbered along the chain they refer to. Names and notes keep the numbering of the source.

A word on the kcat: it is the maximal rate divided by the concentration of active sites. By kcat/Km is commonly meant the second-order rate constant that governs catalysis at low substrate concentration.

The test system of data set [1] is C[N+](C)(C)CCOS(=O)(=O)[O-]. Briefly: purified protein. Particulars: pH 7.6; 25.0 °C.
In data set [2] the test system is O=[N+]([O-])c1ccc(OS(=O)(=O)O)cc1. As to the kind of experiment: purified protein. The note with it: 100 mM Tris-HCl pH 7.6, 25 °C.
The target of data set [3] is T1, SmCS (Sinorhizobium meliloti choline sulfatase, BetC) (Sinorhizobium meliloti, UniProt O69787).
T1 sequence (O69787 1-512): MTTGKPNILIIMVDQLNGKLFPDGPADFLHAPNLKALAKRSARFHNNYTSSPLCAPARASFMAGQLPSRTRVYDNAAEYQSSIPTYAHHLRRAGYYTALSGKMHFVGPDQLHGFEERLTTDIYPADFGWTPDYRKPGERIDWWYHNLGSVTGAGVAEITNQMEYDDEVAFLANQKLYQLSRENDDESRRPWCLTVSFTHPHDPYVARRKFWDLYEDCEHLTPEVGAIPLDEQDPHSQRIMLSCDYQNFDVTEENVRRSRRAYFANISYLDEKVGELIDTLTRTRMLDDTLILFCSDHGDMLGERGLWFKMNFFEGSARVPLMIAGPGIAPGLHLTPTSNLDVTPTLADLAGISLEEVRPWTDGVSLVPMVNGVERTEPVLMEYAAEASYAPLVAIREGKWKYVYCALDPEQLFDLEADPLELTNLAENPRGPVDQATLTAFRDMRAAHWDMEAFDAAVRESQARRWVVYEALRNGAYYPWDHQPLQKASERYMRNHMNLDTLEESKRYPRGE
As to the kind of experiment: product inhibition kinetics. Format: biochemical. Particulars: competitive; range over the pH values tested, single values in Fig. S11; 25 °C. From the text: product inhibition kinetics on SmCS (Sinorhizobium meliloti choline sulfatase, BetC) | The reaction product choline can act as a competitive inhibitor, albeit a relatively weak one

Substrate in data set [4]: COP(=O)(O)Oc1ccc([N+](=O)[O-])cc1
As to the kind of experiment: purified protein. The note with it: 100 mM imidazole-HCl pH 6.0, 25 °C.

Substrate in data set [5]: C[N+](C)(C)CCOP(=O)([O-])O
Briefly: purified protein. The note with it: 100 mM Tris-HCl pH 7.6, 25 °C, no metal added.

Substrate in data set [6]: C[N+](C)(C)CCOS(=O)(=O)[O-]
Briefly: purified protein. The note with it: 100 mM Tris-HCl pH 7.6, 25 °C.

Substrate in data set [7]: O=[N+]([O-])c1ccc(OS(=O)(=O)O)cc1
Briefly: purified protein.

Where [8] appears, read: 100 mM imidazole-HCl pH 6.0, 25 °C.
The mark [9] stands for this setting: 100 mM Tris-HCl pH 7.6, 25 °C, made without FGE.

In the case of “SmCS (Sinorhizobium meliloti choline sulfatase, BetC) (Sinorhizobium meliloti 1021; DEL501-512)”, in data set [1], the Km entry was “(1.09 ± 0.01) × 10^-2 M”, the kcat turned out to be 0.021 ± 0.002 s⁻¹ and the kcat/Km came out at 1.93 ± 0.01 M⁻¹ s⁻¹. In data set [2], the Km result is “(9.0 ± 0.1) × 10^-2 M”, the kcat was 0.0159 ± 0.0001 s⁻¹ and the kcat/Km came to 0.178 ± 0.004 M⁻¹ s⁻¹.

For `C[N+](C)(C)CCO` [choline], the KIC in data set [3] was ~ 52–6.3 mM.

B1: SmCS (Sinorhizobium meliloti choline sulfatase, BetC) (Sinorhizobium meliloti 1021) (protein)
chain: T1 sequence (O69787 1-512)
On to B1, for which the kcat in “purified protein [4]” is greater than 0.004 s⁻¹; in the data set “purified protein [5]” it was 0.0267 ± 0.0001 s⁻¹; in the data set “purified protein [6]” (no metal added), 2.4 ± 0.2 s⁻¹; in the data set “purified protein [7]” (setting [8]), 0.22 ± 0.01 s⁻¹. Also, the Km entry in “purified protein [5]” is “(2.1 ± 0.2) × 10^-3 M”; in “purified protein [6]” (no metal added), “(5.0 ± 0.6) × 10^-4 M”; in “purified protein [7]” (setting [8]), “(1.9 ± 0.2) × 10^-2 M”. Besides, the kcat/Km in the data set “purified protein [5]” came to 13 ± 1 M⁻¹ s⁻¹; in “purified protein [6]” (no metal added), 4800 ± 500 M⁻¹ s⁻¹; in the data set “purified protein [7]” (setting [8]), 12 ± 2 M⁻¹ s⁻¹.

B2: SmCS (Sinorhizobium meliloti choline sulfatase, BetC) (Sinorhizobium meliloti 1021; C54S) (protein)
chain: T1 sequence (O69787 1-512) with C54S
Take B2: in “purified protein [6]” (made without FGE), the Km result is “(9.4 ± 0.1) × 10^-3 M”, the kcat was 0.0112 ± 0.0002 s⁻¹ and the kcat/Km turned out to be 1.19 ± 0.02 M⁻¹ s⁻¹. In addition, in the data set “purified protein [7]” (setting [9]), the Km result is reported as “(3.9 ± 0.2) × 10^-2 M”, the kcat amounted to 7.3e-05 ± 1e-06 s⁻¹ and the kcat/Km was 0.00189 ± 6e-05 M⁻¹ s⁻¹.

B3: SmCS (Sinorhizobium meliloti choline sulfatase, BetC) (Sinorhizobium meliloti 1021; H104A) (protein)
chain: T1 sequence (O69787 1-512) with H104A
As for B3, in “purified protein [6]”, the Km result is given as “(1.33 ± 0.01) × 10^-2 M”, the kcat worked out at 0.0347 ± 0.0001 s⁻¹ and the kcat/Km was 2.6 ± 0.02 M⁻¹ s⁻¹.

B4: SmCS (Sinorhizobium meliloti choline sulfatase, BetC) (Sinorhizobium meliloti 1021; K309L) (protein)
chain: T1 sequence (O69787 1-512) with K309L
For the molecule B4, in “purified protein [7]” (100 mM Tris-HCl pH 7.6, 25 °C), the Km result is “(8.9 ± 2.7) × 10^-2 M”, the kcat was 1.6e-05 ± 5e-06 s⁻¹ and the kcat/Km was found to be 0.000176 ± 1e-06 M⁻¹ s⁻¹.

B5: SmCS (Sinorhizobium meliloti choline sulfatase, BetC) (Sinorhizobium meliloti 1021; E386L) (protein)
chain: T1 sequence (O69787 1-512) with E386L
As for B5, in the data set “purified protein [6]”, the kcat is greater than 0.012 s⁻¹ and the kcat/Km is 0.81 ± 0.01 M⁻¹ s⁻¹. In addition, in “purified protein [7]” (100 mM Tris-HCl pH 7.6, 25 °C), the Km result was “(5.7 ± 0.4) × 10^-2 M”, the kcat turned out to be 0.76 ± 0.03 s⁻¹ and the kcat/Km was determined as 13 ± 1 M⁻¹ s⁻¹.
